B1: library; numbered along this chain (parent)
chain: MRKPRAAVGSGHRKQAASQEGRQKHAKNNSQAKPSACDGLARQPEEVVLQASVSSYHLFRDVAEVTAFRGSLLSWYDQEKRDLPWRRRAEDEMDLDRRAYAVWVSEVMLQQTQVATVINYYTGWMQKWPTLQDLASASLEEVNQLWAGLGYYSRGRRLQEGARKVVEELGGHMPRTAETLQQLLPGVGRYTAGAIASIAFGQATGVVDGNVARVLCRVRAIGADPSSTLVSQQLWGLAQQLVDPARPGDFNQAAMELGATVCTPQRPLCSQCPVESLCRARQRVEQEQLLASGSLSGSPDVEECAPNTGQCHLCLPPSEPWDQTLGVVNFPRKASRKPPREESSATCVLEQPGALGAQILLVQRPNSGLLAGLWEFPSVTWEPSEQLQRKALLQELQRWAGPLPATHLRHLGEVVHTFSHIKLTYQVYGLALEGQTPVTTVPPGARWLTQEEFHTAAVSTAMKKVFRVYQGQQPGTCMGSKRSQVSSPCSRKKPRMGQQVLDNFFRSHISTDAHSLNSAAQ

Variants of: B1
Assay: 8OG:A repair function score (normalized; synonymous = 0, nonsense = -1) (normalized log-likelihood score); higher = more repair activity (WT-like)
Conditions: with 8OG:A DNA repair reporter (GFP) in HEK-293 MUTYH KO cells
How it was run: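 With 10 pg/ml doxycycline, MUTYH knockout HEK-293 cells carrying lentiviral MUTYH cDNA NNN codon-scan libraries were co-transfected with mCherry and an 8OG:A GFP repair reporter. Viable mCherry+ cells were sorted into GFP+ (repair) and GFP− bins at 72 h, three replicates per tile, and tile amplicons were sequenced. Per-tile Rosace fitness scores were then normalized into a repair function score anchored on synonymous and nonsense distributions. Medians were fixed at 0 for synonymous and -1 for nonsense, excluding variants under 300 counts per million at the start.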

In order of rising “8OG:A repair function score” value:
1. MRKPRAAVGSGHRKQAASQEGRQKHAKNNSQAKPSACDGLARQPEEVVLQASVSSYHLFRDVAEVTAFRGSLLSWYDQEKRDLPWRRRAEDEMDLDRRAYAVWVSEVMLQQTQVATVINYYTGWMQKWPTLQDLASASLEEVNQLWAGLGYYSRGRRLQEGARKVVEELGGHMPRTAETLQQLLPGVGRYTAGAIASIAFGQATGVVDGNVARVLCRVRAIGADPSSTLVSQQLWGLAQQLVDPARPGDFNQAAMELGATVCTPQRPLCSQCPVESLCRARQRVEQEQLMASGSLSGSPDVEECAPNTGQCHLCLPPSEPWDQTLGVVNFPRKASRKPPREESSATCVLEQPGALGAQILLVQRPNSGLLAGLWEFPSVTWEPSEQLQRKALLQELQRWAGPLPATHLRHLGEVVHTFSHIKLTYQVYGLALEGQTPVTTVPPGARWLTQEEFHTAAVSTAMKKVFRVYQGQQPGTCMGSKRSQVSSPCSRKKPRMGQQVLDNFFRSHISTDAHSLNSAAQ [L290M]  -0.0856
2. MRKPRAAVGSGHRKQAASQEGRQKHAKNNSQAKPSACDGLARQPEEVVLQASVSSYHLFRDVAEVTAFRGSLLSWYDQEKRDLPWRRRAEDEMDLDRRAYAVWVSEVMLQQTQVATVINYYTGWMQKWPTLQDLASASLEEVNQLWAGLGYYSRGRRLQEGARKVVEELGGHMPRTAETLQQLLPGVGRYTAGAIASIAFGQATGVVDGNVARVLCRVRAIGADPSSTLVSQQLWGLAQQLVDPARPGDFNQAAMELGATVCTPQRPLCSQCPVESLCRARQRVEQEQLAASGSLSGSPDVEECAPNTGQCHLCLPPSEPWDQTLGVVNFPRKASRKPPREESSATCVLEQPGALGAQILLVQRPNSGLLAGLWEFPSVTWEPSEQLQRKALLQELQRWAGPLPATHLRHLGEVVHTFSHIKLTYQVYGLALEGQTPVTTVPPGARWLTQEEFHTAAVSTAMKKVFRVYQGQQPGTCMGSKRSQVSSPCSRKKPRMGQQVLDNFFRSHISTDAHSLNSAAQ [L290A]  -0.0163
3. MRKPRAAVGSGHRKQAASQEGRQKHAKNNSQAKPSACDGLARQPEEVVLQASVSSYHLFRDVAEVTAFRGSLLSWYDQEKRDLPWRRRAEDEMDLDRRAYAVWVSEVMLQQTQVATVINYYTGWMQKWPTLQDLASASLEEVNQLWAGLGYYSRGRRLQEGARKVVEELGGHMPRTAETLQQLLPGVGRYTAGAIASIAFGQATGVVDGNVARVLCRVRAIGADPSSTLVSQQLWGLAQQLVDPARPGDFNQAAMELGATVCTPQRPLCSQCPVESLCRARQRVEQEQLHASGSLSGSPDVEECAPNTGQCHLCLPPSEPWDQTLGVVNFPRKASRKPPREESSATCVLEQPGALGAQILLVQRPNSGLLAGLWEFPSVTWEPSEQLQRKALLQELQRWAGPLPATHLRHLGEVVHTFSHIKLTYQVYGLALEGQTPVTTVPPGARWLTQEEFHTAAVSTAMKKVFRVYQGQQPGTCMGSKRSQVSSPCSRKKPRMGQQVLDNFFRSHISTDAHSLNSAAQ [L290H]  -0.0116
4. MRKPRAAVGSGHRKQAASQEGRQKHAKNNSQAKPSACDGLARQPEEVVLQASVSSYHLFRDVAEVTAFRGSLLSWYDQEKRDLPWRRRAEDEMDLDRRAYAVWVSEVMLQQTQVATVINYYTGWMQKWPTLQDLASASLEEVNQLWAGLGYYSRGRRLQEGARKVVEELGGHMPRTAETLQQLLPGVGRYTAGAIASIAFGQATGVVDGNVARVLCRVRAIGADPSSTLVSQQLWGLAQQLVDPARPGDFNQAAMELGATVCTPQRPLCSQCPVESLCRARQRVEQEQLNASGSLSGSPDVEECAPNTGQCHLCLPPSEPWDQTLGVVNFPRKASRKPPREESSATCVLEQPGALGAQILLVQRPNSGLLAGLWEFPSVTWEPSEQLQRKALLQELQRWAGPLPATHLRHLGEVVHTFSHIKLTYQVYGLALEGQTPVTTVPPGARWLTQEEFHTAAVSTAMKKVFRVYQGQQPGTCMGSKRSQVSSPCSRKKPRMGQQVLDNFFRSHISTDAHSLNSAAQ [L290N]  0.00556
5. MRKPRAAVGSGHRKQAASQEGRQKHAKNNSQAKPSACDGLARQPEEVVLQASVSSYHLFRDVAEVTAFRGSLLSWYDQEKRDLPWRRRAEDEMDLDRRAYAVWVSEVMLQQTQVATVINYYTGWMQKWPTLQDLASASLEEVNQLWAGLGYYSRGRRLQEGARKVVEELGGHMPRTAETLQQLLPGVGRYTAGAIASIAFGQATGVVDGNVARVLCRVRAIGADPSSTLVSQQLWGLAQQLVDPARPGDFNQAAMELGATVCTPQRPLCSQCPVESLCRARQRVEQEQLIASGSLSGSPDVEECAPNTGQCHLCLPPSEPWDQTLGVVNFPRKASRKPPREESSATCVLEQPGALGAQILLVQRPNSGLLAGLWEFPSVTWEPSEQLQRKALLQELQRWAGPLPATHLRHLGEVVHTFSHIKLTYQVYGLALEGQTPVTTVPPGARWLTQEEFHTAAVSTAMKKVFRVYQGQQPGTCMGSKRSQVSSPCSRKKPRMGQQVLDNFFRSHISTDAHSLNSAAQ [L290I]  0.0122
6. MRKPRAAVGSGHRKQAASQEGRQKHAKNNSQAKPSACDGLARQPEEVVLQASVSSYHLFRDVAEVTAFRGSLLSWYDQEKRDLPWRRRAEDEMDLDRRAYAVWVSEVMLQQTQVATVINYYTGWMQKWPTLQDLASASLEEVNQLWAGLGYYSRGRRLQEGARKVVEELGGHMPRTAETLQQLLPGVGRYTAGAIASIAFGQATGVVDGNVARVLCRVRAIGADPSSTLVSQQLWGLAQQLVDPARPGDFNQAAMELGATVCTPQRPLCSQCPVESLCRARQRVEQEQLKASGSLSGSPDVEECAPNTGQCHLCLPPSEPWDQTLGVVNFPRKASRKPPREESSATCVLEQPGALGAQILLVQRPNSGLLAGLWEFPSVTWEPSEQLQRKALLQELQRWAGPLPATHLRHLGEVVHTFSHIKLTYQVYGLALEGQTPVTTVPPGARWLTQEEFHTAAVSTAMKKVFRVYQGQQPGTCMGSKRSQVSSPCSRKKPRMGQQVLDNFFRSHISTDAHSLNSAAQ [L290K]  0.0241

Source: the supplement of paper PMC11908140
